Test results published in paper doi:10.1101/2021.10.01.462756 (bioRxiv, 2021).

B1: Rad24 (natural protein)
chain: MDSTNLNKRPLLQYSLSSLGSQITKWSSSRPTSPVRKARSTENDFLSKQDTSSILPSINDDGGEQWYEKFKPNCLEQVAIHKRKLKDVQEALDAMFLPNAKHRILLLSGPSGCSKSTVIKELSKILVPKYRQNSNGTSFRSTPNEHKVTEFRGDCIVNDLPQMESFSEFLKGARYLVMSNLSLILIEDLPNVFHIDTRRRFQQLILQWLYSSEPLLPPLVICITECEIPENDNNYRKFGIDYTFSAETIMNKEILMHPRLKRIKFNPINSTLLKKHLKFICVQNMKMLKEKNKWNKRQEVIDYIAQETGDIRSAITTLQFWATSSGSLPISTRESTISYFHAIGKVIHGSHSTNNDNEMINNLFENSNNLLSKEDFKLGILENYNTFNKGEFSISDASSIVDCLSECDNMNGLPESNEYGLREVRKTFRNISKQGHNHGTVYFPREWKVRKLQNSFKVQAEDWLNVSLYKYNAVHSFRNITLEFGYYAPLIRKCQSYKKKYILYYLKNLPSGSSGPKQTMDKFSDIMKVENGIDVVDRIGGPIEALSVEDGLAPLMDNDSNNCDHLEDQKKERDRRLRMLIDQYERNVMMANDDLEDEETSFNDDPIVDSDSDNSNNIGNETFGRSDEDESLCEILSQRQPRKAPVISESLSDSDLEIL
B6: Ddc1 (natural protein)
chain: MSFKATITESGKQNIWFRAIYVLSTIQDDIKITVTTNELIAWSMNETDTTLCQVRFQKSFFEEYEFKPHEIVFGENGVQVIEDTYGNSHKLYSFRVNGRHLTTISRKPDGDGIKSFTIAVNNTSTCPESLANRLIVVIEMDSLIVKEYCPQFQPIKYDPIIINLKYKRRFLDVFGTAASDRNPQEPLDPKLLDVFTNTERELTSALFNEEVESDIRKRNQLTAADEINYICCNSTLLKNFLDNCNVNVTDEVKLEINVHRLSITAFTKAVYGKNNDLLRNALSMSNTISTLDLEHYCLFTTIEDEKQDKRSHSKRREHMKSIIFKLKDFKNFITIGPSWKTTQDGNDNISLWFCHPGDPILMQMQKPGVKLELVEVTDSNINDDILEGKFIKTAISGSKEEAGLKDNKESCESPLKSKTALKRENLPHSVAGTRNSPLKVSYLTPDNGSTVAKTYRNNTARKLFVEEQSQSTNYEQDKRFRQASSVHMNMNREQSFDIGTTHEVACPRNESNSLKRSIADICNETEDPTQQSTFAKRADTTVTWGKALPAADDEVSCSNIDRKGMLKKEKLKHMQGLLNSQNDTSNHKKQDNKEMEDGLGLTQVEKPRGIFD

Legend:
Experiment in all cases: cryo-EM structure
[1] = target: T1, 9-1-1 clamp (Ddc1–Mec3–Rad17) (S. cerevisiae, UniProt Q08949;Q02574;P48581)
T1 sequence 1: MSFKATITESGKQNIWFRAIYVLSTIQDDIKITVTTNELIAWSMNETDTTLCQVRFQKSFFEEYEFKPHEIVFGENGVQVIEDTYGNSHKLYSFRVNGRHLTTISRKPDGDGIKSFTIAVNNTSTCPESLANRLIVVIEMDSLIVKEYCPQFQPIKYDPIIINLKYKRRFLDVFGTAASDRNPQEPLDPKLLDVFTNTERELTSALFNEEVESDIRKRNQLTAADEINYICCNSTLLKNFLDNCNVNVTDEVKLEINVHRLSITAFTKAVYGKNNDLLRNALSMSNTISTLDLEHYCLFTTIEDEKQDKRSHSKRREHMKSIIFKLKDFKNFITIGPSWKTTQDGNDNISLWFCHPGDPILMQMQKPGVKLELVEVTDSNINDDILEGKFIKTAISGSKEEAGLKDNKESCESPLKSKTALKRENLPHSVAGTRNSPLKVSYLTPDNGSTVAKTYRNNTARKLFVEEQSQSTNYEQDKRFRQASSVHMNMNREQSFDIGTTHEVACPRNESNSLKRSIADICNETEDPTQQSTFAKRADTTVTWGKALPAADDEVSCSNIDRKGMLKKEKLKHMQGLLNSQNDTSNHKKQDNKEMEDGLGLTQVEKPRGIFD
T1 sequence 2: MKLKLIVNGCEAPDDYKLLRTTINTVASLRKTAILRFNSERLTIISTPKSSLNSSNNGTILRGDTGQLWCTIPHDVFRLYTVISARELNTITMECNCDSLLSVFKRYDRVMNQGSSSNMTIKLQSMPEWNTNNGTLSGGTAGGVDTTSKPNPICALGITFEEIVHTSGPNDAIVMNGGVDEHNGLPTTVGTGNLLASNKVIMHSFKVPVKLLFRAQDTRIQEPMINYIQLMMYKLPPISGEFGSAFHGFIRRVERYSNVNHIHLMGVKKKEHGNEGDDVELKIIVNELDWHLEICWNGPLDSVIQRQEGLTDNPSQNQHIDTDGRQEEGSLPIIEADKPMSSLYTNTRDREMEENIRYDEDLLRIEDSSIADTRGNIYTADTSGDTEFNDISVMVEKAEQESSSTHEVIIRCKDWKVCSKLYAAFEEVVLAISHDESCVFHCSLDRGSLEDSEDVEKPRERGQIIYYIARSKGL
T1 sequence 3: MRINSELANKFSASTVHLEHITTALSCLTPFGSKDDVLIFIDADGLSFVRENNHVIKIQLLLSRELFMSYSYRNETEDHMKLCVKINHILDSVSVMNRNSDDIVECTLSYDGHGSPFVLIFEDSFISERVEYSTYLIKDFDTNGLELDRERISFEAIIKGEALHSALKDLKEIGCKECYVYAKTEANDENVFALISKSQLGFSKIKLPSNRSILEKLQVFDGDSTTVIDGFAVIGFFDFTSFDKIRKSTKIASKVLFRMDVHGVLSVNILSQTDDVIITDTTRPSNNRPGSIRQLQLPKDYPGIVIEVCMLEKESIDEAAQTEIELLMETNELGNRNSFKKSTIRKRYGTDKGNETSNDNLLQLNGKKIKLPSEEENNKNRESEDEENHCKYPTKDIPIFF

[2] = target: B6
[3] = target: T2, Rad17 (S. cerevisiae, UniProt P48581 1-401)
T2 sequence: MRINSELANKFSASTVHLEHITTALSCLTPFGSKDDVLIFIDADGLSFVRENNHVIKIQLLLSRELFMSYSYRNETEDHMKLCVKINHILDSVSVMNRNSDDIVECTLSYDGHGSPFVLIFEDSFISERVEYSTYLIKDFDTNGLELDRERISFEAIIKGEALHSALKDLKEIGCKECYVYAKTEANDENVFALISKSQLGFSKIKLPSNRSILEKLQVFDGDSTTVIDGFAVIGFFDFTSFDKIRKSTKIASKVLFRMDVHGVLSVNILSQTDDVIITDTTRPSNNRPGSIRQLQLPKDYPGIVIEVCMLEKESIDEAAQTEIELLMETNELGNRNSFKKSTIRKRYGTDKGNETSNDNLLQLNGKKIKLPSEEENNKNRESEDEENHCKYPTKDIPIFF

[4] = target: B1

B1: binds [1].

B2: Rfc2 (natural protein)
chain: MFEGFGPNKKRKISKLAAEQSLAQQPWVEKYRPKNLDEVTAQDHAVTVLKKTLKSANLPHMLFYGPPGTGKTSTILALTKELYGPDLMKSRILELNASDERGISIVREKVKNFARLTVSKPSKHDLENYPCPPYKIIILDEADSMTADAQSALRRTMETYSGVTRFCLICNYVTRIIDPLASRCSKFRFKALDASNAIDRLRFISEQENVKCDDGVLERILDISAGDLRRGITLLQSASKGAQYLGDGKNITSTQVEELAGVVPHDILIEIVEKVKSGDFDEIKKYVNTFMKSGWSAASVVNQLHEYYITNDNFDTNFKNQISWLLFTTDSRLNNGTNEHIQLLNLLVKISQL
B2: binds [2].

B3: Rfc3 (natural protein)
chain: MSTSTEKRSKENLPWVEKYRPETLDEVYGQNEVITTVRKFVDEGKLPHLLFYGPPGTGKTSTIVALAREIYGKNYSNMVLELNASDDRGIDVVRNQIKDFASTRQIFSKGFKLIILDEADAMTNAAQNALRRVIERYTKNTRFCVLANYAHKLTPALLSRCTRFRFQPLPQEAIERRIANVLVHEKLKLSPNAEKALIELSNGDMRRVLNVLQSCKATLDNPDEDEISDDVIYECCGAPRPSDLKAVLKSILEDDWGTAHYTLNKVRSAKGLALIDLIEGIVKILEDYELQNEETRVHLLTKLADIEYSISKGGNDQIQGSAVIGAIKASFENETVKANV
B3: binds [3].

B4: Rfc5 (natural protein)
chain: MSLWVDKYRPKSLNALSHNEELTNFLKSLSDQPRDLPHLLLYGPNGTGKKTRCMALLESIFGPGVYRLKIDVRQFVTASNRKLELNVVSSPYHLEITPSDMGNNDRIVIQELLKEVAQMEQVDFQDSKDGLAHRYKCVIINEANSLTKDAQAALRRTMEKYSKNIRLIMVCDSMSPIIAPIKSRCLLIRCPAPSDSEISTILSDVVTNERIQLETKDILKRIAQASNGNLRVSLLMLESMALNNELALKSSSPIIKPDWIIVIHKLTRKIVKERSVNSLIECRAVLYDLLAHCIPANIILKELTFSLLDVETLNTTNKSSIIEYSSVFDERLSLGNKAIFHLEGFIAKVMCCLD
B4: binds [4]; binds [1].

B5: His-PK-Mec3 (natural protein)
chain: MKLKLIVNGCEAPDDYKLLRTTINTVASLRKTAILRFNSERLTIISTPKSSLNSSNNGTILRGDTGQLWCTIPHDVFRLYTVISARELNTITMECNCDSLLSVFKRYDRVMNQGSSSNMTIKLQSMPEWNTNNGTLSGGTAGGVDTTSKPNPICALGITFEEIVHTSGPNDAIVMNGGVDEHNGLPTTVGTGNLLASNKVIMHSFKVPVKLLFRAQDTRIQEPMINYIQLMMYKLPPISGEFGSAFHGFIRRVERYSNVNHIHLMGVKKKEHGNEGDDVELKIIVNELDWHLEICWNGPLDSVIQRQEGLTDNPSQNQHIDTDGRQEEGSLPIIEADKPMSSLYTNTRDREMEENIRYDEDLLRIEDSSIADTRGNIYTADTSGDTEFNDISVMVEKAEQESSSTHEVIIRCKDWKVCSKLYAAFEEVVLAISHDESCVFHCSLDRGSLEDSEDVEKPRERGQIIYYIARSKGL
B5: binds [2].

B6: binds [4].

B7: Rfc4 (natural protein)
chain: MSKTLSLQLPWVEKYRPQVLSDIVGNKETIDRLQQIAKDGNMPHMIISGMPGIGKTTSVHCLAHELLGRSYADGVLELNASDDRGIDVVRNQIKHFAQKKLHLPPGKHKIVILDEADSMTAGAQQALRRTMELYSNSTRFAFACNQSNKIIEPLQSRCAILRYSKLSDEDVLKRLLQIIKLEDVKYTNDGLEAIIFTAEGDMRQAINNLQSTVAGHGLVNADNVFKIVDSPHPLIVKKMLLASNLEDSIQILRTDLWKKGYSSIDIVTTSFRVTKNLAQVKESVRLEMIKEIGLTHMRILEGVGTYLQLASMLAKIHKLNNKA
B7: binds [3]; binds [4].
